Reference: PMC3731272, “Evidence for a Novel Mechanism of the PAK1 Interaction with the Rho-GTPases Cdc42 and Rac” (PLoS ONE, 2013)

Target: T1, GFP-PAK1^S79A (UniProt Q13153 1-545, S79A)
T1 construct: source: 293T cells, expressed, in cell extract / lysate
Experiment: co-IP; GFP-PAK1 (WT or S79A) coexpressed with Myc-Cdc42 in 293T cells; extracts immunoprecipitated with anti-GFP, blotted with anti-Myc; lysis buffer 50 mM HEPES pH 7.4, 150 mM NaCl, 1 mM EDTA, 10% glycerol, 1% Triton X100 with phosphatase inhibitors; antibodies overnight at 4°C
Conditions: partners not purified

T1 sequence (Q13153 whole entry S79A): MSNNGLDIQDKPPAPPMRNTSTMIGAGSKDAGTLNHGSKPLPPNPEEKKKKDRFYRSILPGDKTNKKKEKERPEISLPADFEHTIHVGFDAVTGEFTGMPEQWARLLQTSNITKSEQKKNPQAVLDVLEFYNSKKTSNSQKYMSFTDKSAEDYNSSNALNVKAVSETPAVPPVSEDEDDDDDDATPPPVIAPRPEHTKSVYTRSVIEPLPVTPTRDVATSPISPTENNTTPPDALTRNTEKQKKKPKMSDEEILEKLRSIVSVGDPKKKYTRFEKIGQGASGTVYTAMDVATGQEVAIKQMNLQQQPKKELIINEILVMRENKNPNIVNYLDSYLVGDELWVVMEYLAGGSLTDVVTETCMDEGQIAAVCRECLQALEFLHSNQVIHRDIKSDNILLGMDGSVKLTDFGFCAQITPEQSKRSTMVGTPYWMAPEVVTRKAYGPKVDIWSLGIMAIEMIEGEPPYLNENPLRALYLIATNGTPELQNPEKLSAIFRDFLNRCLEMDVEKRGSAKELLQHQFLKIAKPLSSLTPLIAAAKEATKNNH

fold reduction of binding against wild type PAK1: ~3 fold
B1: Myc-Cdc42 (natural protein)
chain: not shown
notes: Rho GTPase Cdc42; source: 293T cells, coexpressed, in cell extract
